Laboratory results taken from patent publication US20190023750A1 (SPOGEN BIOTECH, published 2019).

Target: FLS2 receptor (in corn tissue) (corn (taken from the assay tissue; …)
Experiment: cell-based or functional assay

QRLSSGKRINSASDDAAGLAIA [Bt.Flg22-Syn03, Mutant D1Q (SEQ ID NO: 573)]
Avg. Activity (%), ROS activity in corn (5828 YX) at 5 nM polypeptide, relative to Bt.4Q7Flg22: 122%
